Laboratory results taken from patent publication US7220569.

Molecular target: T1, Factor X analogue with the furin cleavage site Arg-Arg-Lys-Arg/Ile (rFX^RRKR/I)
T1 chain 1: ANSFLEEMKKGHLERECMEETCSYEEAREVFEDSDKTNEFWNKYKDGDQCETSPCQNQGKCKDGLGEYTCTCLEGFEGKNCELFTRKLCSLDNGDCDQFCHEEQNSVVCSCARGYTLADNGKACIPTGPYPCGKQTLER
T1 chain 2: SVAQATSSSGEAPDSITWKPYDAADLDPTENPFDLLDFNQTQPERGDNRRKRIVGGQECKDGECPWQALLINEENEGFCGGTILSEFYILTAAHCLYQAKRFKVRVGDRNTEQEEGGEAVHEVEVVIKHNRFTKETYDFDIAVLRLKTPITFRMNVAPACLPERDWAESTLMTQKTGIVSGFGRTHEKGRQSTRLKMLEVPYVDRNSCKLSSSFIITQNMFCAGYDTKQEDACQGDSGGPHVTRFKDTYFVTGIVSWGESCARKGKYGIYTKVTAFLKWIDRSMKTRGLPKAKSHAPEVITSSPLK

B1: rfurin deltaCys-spacer-10xHis (purified r-furin derivative) (protein)
chain: DVYQEPTDPKFPQQWYLSGVTQRDLNVKAAWAQGYTGHGIVVSILDDGIEKNHPDLAGNYDPGASFDVNDQDPDPQPRYTQMNDNRHGTRCAGEVAAVANNGVCGVGVAYNARIGGVRMLDGEVTDAVEARSLGLNPNHIHIYSASWGPEDDGKTVDGPARLAEEAFFRGVSQGRGGLGSIFVWASGNGGREHDSCNCDGYTNSIYTLSISSATQFGNVPWYSEACSSTLATTYSSGNQNEKQIVTTDLRQKCTESHTGTSASAPLAAGIIALTLEANKNLTWRDMQHLVVQTSKPAHLNANDWATNGVGRKVSHSYGYGLLDAGAMVALAQNWTTVAPQRKCIIDILTEPKDIGKRLEVRKTVTACLGEPNHITRLEHAQARLTLSYNRRGDLAIHLVSPMGTRSTLLAARPHDYSADGFNDWAFMTTHSWDEDPSGEWVLEIENTSEANNYGTLTKFTLVLYGTAPEG
For B1, the FXa activity (mU/ml), chromogenic substrate S2337, incubation 0 hours was under 25 mU/ml, the FXa activity (mU/ml), chromogenic substrate S2337, incubation 6 hours was 56 mU/ml and the FXa activity (mU/ml), chromogenic substrate S2337, incubation 24 hours was 101 mU/ml. For the same protein, the FXa activity (mU/ml), chromogenic substrate S2337, incubation 48 hours was 124 mU/ml, the FXa activity (mU/ml), chromogenic substrate S2337, incubation 72 hours was 133 mU/ml and the “conversion of the heavy chain to the activated form after 72 hours at 37 C (Western blot)” value was “about 50% of the starting material (HC) have been converted to the activated form”. The specific activity (mU/µg), incubation 0 hours was 0 mU/µg, the specific activity (mU/µg), incubation 6 hours was 80 mU/µg and the specific activity (mU/µg), incubation 24 hours was 144 mU/µg. It also gave a specific activity (mU/µg), incubation 48 hours of 177 mU/µg and a specific activity (mU/µg), incubation 72 hours of 190 mU/µg.
